Data from patent publication US8658382B2, “Proteins with pteridine glycosyltransferase activity and analysis method using the same” (Inje University Industry-Academic Cooperation Foundation, priority 2008, dated 2014).

Legend:
[1] = BGluT-catalysed glucosylation of tetrahydrobiopterin (establishing reaction conditions); type: biochemical
Description: Unless otherwise specified, the following standard reaction conditions were used for the determination of tetrahydrobiopterin and its oxidized forms. Reactions were carried out in a final volume of 100 μl, which consisted of 50 mM Tris-HCl (pH 7.5), 10 mM MgCl2, 0.05% ascorbic acid, 500 μM UDP-glucose, 1 μg of BGluT, and an aliquot of pteridines or tissue extracts. The reaction mixture was incubated for 20 minutes at 37° C. and then mixed with 30 μl of acidic iodine solution (2% KIM % I2 in 1 N HCl). After 1 hour in the dark at room temperature, the oxidized mixture was centrifuged. […]
The HPLC system consisted of Gilson 321 pump, Gilson 234 autoinjector, a fluorescence detector (Schimadzu RF-10AXL), and a system software (Gilson Unipoint version 5.11). […] Pteridines were eluted isocratically at a flow rate of 1.2 ml/min and monitored at 350/450 nm (excitation/emission). Pteridine peaks were identified and quantified using authentic pteridines, which were purchased from Dr. B. Schirck's Lab (Jona, Switzerland). […]
The results of FIG. 1 illustrate that a selective and quantitative analysis of tetrahydrobiopterin is possible using BGluT. In order to validate the possibility quantitatively, various studies were carried out to establish a standard reaction condition suitable for analysis of biological samples. […]

[2] = Storage stability of purified recombinant BGluT; type: physicochemical; details: in 20 mM Tris-HCl (pH 7.5), 30% (v/v) glycerol, aliquots at −70° C.
Source text: According to the present inventor's article (Y. K. Choi, Y. K. Hwang, Y. S. Park, Molecular cloning and disruption of a novel gene encoding UDP-glucose:tetrahydrobiopterin alpha-glucosyltransferase gene in Synechococcus sp. PCC 7942. FEBS Lett. 502 (2001) 73-78), the BGluT gene cloned in pET-28a was overexpressed in Escherichia coli strain BL21(DE3). The recombinant BGluT was homogeneously purified with Ni-NTA column (Qiagen). Briefly, the transformed E. coli was induced to overexpress the protein with 0.3 mM isopropyl thiogalactoside (IPTG). After being incubated at 37° C. for 3 hours, the harvested cells were washed with lysis buffer (50 mM sodium phosphate (pH 8.0), 300 mM NaCl, 10 mM imidazole), resuspended in the same buffer, and disrupted by sonication. The crude extract obtained after centrifugation was applied to a column of Ni-NTA gel (Qiagen) and purified according to the product manual. The recombinant BGluT protein was eluted with 250 mM imidazole in the lysis buffer. The purified protein was dialyzed against 20 mM Tris-HCl (pH 7.5), mixed with glycerol to a concentration of 30% (v/v), and stored in aliquots at −70° C. until use. The protein was stable up to 4 months. Protein concentration was determined using Bradford reagent.

B1: BGluT: recombinant protein from a Synechococcus gene with pteridine glucosyltransferase activity (UDP-glucose:tetrahydrobiopterin glucosyltransferase) (protein)
chain: MTAHRFLFVSTPVGPLGSGRGGGVELTLPNLAKALTQRGHQVSVLAPAGSVLPDLPLETVPGTWQSTAQSHGRATPAEIPAESVLARLWDRAHQQQADFDLILNFAYDWLPLYLTPFFKTPVAHLISMGSLSEVMDQAIATSLDRYPGSIAVHSLAQAATFPFGDRCLCIGNALDLAAYGFNPEPEPVLGWVGRIAPEKGLEDAIQAAQQAGLPLRVWGALTEPDYWQRLQQQFGDRAVSYQGFVSTDELQRGLGRCQGLLMTPKWVEAFGNVAIEALACGLPVIAYARGGPLEIIEQGKSGWLVEPDQQAALVNAIGQLSSLDRAYCRAQAEARFSLAAMGQRLEAWLLPLLSRARGF
modifications: Synechococcus PCC7942
amount of BGluT above which the product is not increased any more ([1]; 100 μl reaction mixture, 1 μM tetrahydrobiopterin, 10 minutes, FIG. 2): more than 1 μg
conversion of tetrahydrobiopterin to its glucosylated product ([1]; even in the presence of dihydrobiopterin, FIG. 1): specifically convert only all of tetrahydrobiopterin to its glucosylated product
time the protein was stable [2]: up to 4 months
